Data on one substance can be found in article PMC12705809.

For this experiment, the target named is Chaetomium thermophilum Pmt4 (protein O-mannosyltransferase 4), wild-type full-length (Chaetomium thermophilum). Put plainly: native MS; ctPmt4 purified in DDM, exchanged into 200 mM ammonium acetate pH 8.0 with 2x CMC detergent; Q Exactive UHMR, negative polarity; monomer and dimer peaks seen.

For “Chaetomium thermophilum Pmt4 (protein O-mannosyltransferase 4), wild-type full-length (enzyme)”, the stoichiometry N (commonly the number of molecules, sites or subunits per partner or assembly) came out at 2.
